From publication PMC10454913, “Neurohypophysial and paracrine vasopressinergic signaling regulates aquaporin trafficking to hydrate marine teleost oocytes” (Frontiers in Endocrinology, 2023)
Ends that are not written are not given here.

Tests used:
seabream Oxtrb = seabream Oxtrb (Sparus aurata, UniProt R9WVY7); test: Activation of seabream Oxtrb in transfected HEK293T cells (pCRE-luc / pSRE-luc reporters, Fluo-4 AM Ca2+); assay type: cell-based, gilthead seabream (Sparus aurata)
[1] = test system: X. laevis oocytes expressing the seabream Oxtrb and Aqp1aa; conditions: not told

With “CYISNCPIG-NH2 (ends and bridges not checked) [Oxt]” the “pCRE-mediated luciferase activity (cAMP)” value (seabream Oxtrb; HEK293T cells expressing Oxtrb) was “did not induce measurable increases”, the “pSRE-induced luciferase activity (PKC activation)” value (seabream Oxtrb; HEK293T cells expressing Oxtrb, 10^-12 to 10^-5 M) was “concentration-dependent increase” and the “intracellular Ca2+ concentration ([Ca2+]i)” value (seabream Oxtrb; HEK293T cells expressing Oxtrb, Fluo-4 AM) was “concentration-dependent increase”. The EC50 (seabream Oxtrb; Oxt on Oxtrb, HEK293T, read-out: approximate EC50 on cognate receptor) was roughly 10 nM and the “oocyte permeability (P f) and channel accumulation in the plasma membrane” value [1] was “reduction of oocyte permeability”.
